The values below come from patent US20170037111A1, “Novel peptides and combination of peptides for use in immunotherapy against ovarian cancer and other cancers” (immatics biotechnologies GmbH, priority 2015, published 2017).

The target in this experiment is HLA-A*02:01 (Homo sapiens, UniProt P04439, D140Y/D185E/D98H/E176V/E277Q/G131W/G231S/I119V/I121R/I166T/I218V/L300P/L318F/N151K/N90K/P208A/P217A/Q86G/Q94H/R138H/R169H/T345S). The experiment is described as follows: MHC binding assay (UV-ligand exchange, β2m ELISA, peptide exchange yield). The note with it: MHC class I binding score; binding to HLA-A*02:01 ranged by peptide exchange yield (UV-ligand exchange, β2m ELISA). Summed up:
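Binding is expressed as peptide exchange yield: stabilized MHC complexes were quantified by β2m ELISA, with a 450 nm TMB read-out on streptavidin-coated plates. Complexes came from UV-ligand exchange, where UV irradiation cleaves a photolabile peptide so the candidate peptide can load.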
(In general: ELISA stands for enzyme-linked immunosorbent assay.)

With “502 (RLLAQVPGL; listed as Homo sapiens) [compound 502]”, the Peptide exchange result was “″+++″ (≧50% = +++)”.
With “503 (SLNHFTHSV; listed as Homo sapiens) [compound 503]” the entry was “″+++″ (≧50% = +++)”; with “504 (GLSDGNPSL; listed as Homo sapiens) [compound 504]”, “″++″ (≧20% = ++)”.
With “505 (SLAPGDVVRQV; listed as Homo sapiens) [compound 505]” the entry was “″++″ (≧20% = ++)”.
The result for “506 (KLLGKVETA; listed as Homo sapiens) [compound 506]” reads “″+++″ (≧50% = +++)”.
Take “507 (KLIDDQDISISL; listed as Homo sapiens) [compound 507]”: the Peptide exchange entry is listed as “″+++″ (≧50% = +++)”.
The result for “508 (ILAQEQLVVGV; listed as Homo sapiens) [compound 508]” reads “″+++″ (≧50% = +++)”; that for “509 (FLFDTKPLIV; listed as Homo sapiens) [compound 509]”, “″+++″ (≧50% = +++)”; that for “510 (KLYSVVSQL; listed as Homo sapiens) [compound 510]”, “″++″ (≧20% = ++)”.
With “512 (SLSEIVPCL; listed as Homo sapiens) [compound 512]” the entry was “″+++″ (≧50% = +++)”.
With “513 (SLWPSPEQL; listed as Homo sapiens) [compound 513]”, the Peptide exchange result was “″++″ (≧20% = ++)”.
With “514 (ILVDWLVQV; listed as Homo sapiens) [compound 514]” the entry was “″+++″ (≧50% = +++)”; with “515 (LLQELVLFL; listed as Homo sapiens) [compound 515]”, “″+++″ (≧50% = +++)”; with “516 (AVGPASILKEV; listed as Homo sapiens) [compound 516]”, “″++″ (≧20% = ++)”.
Consider “517 (LLMPIPEGLTL; listed as Homo sapiens) [compound 517]”, for which the Peptide exchange result was “″+++″ (≧50% = +++)”.
Consider “519 (GLLHLTLLL; listed as Homo sapiens) [compound 519]”, for which the Peptide exchange result is “″+++″ (≧50% = +++)”.
With “520 (LAVHPSGVAL; listed as Homo sapiens) [compound 520]” the entry was “″+″ (≧10% = +)”; with “521 (MLLTKLPTI; listed as Homo sapiens) [compound 521]”, “″+++″ (≧50% = +++)”.
The result for “522 (TLWYRSPEV; listed as Homo sapiens) [compound 522]” reads “″++″ (≧20% = ++)”; that for “523 (YQIPRTFTL; listed as Homo sapiens) [compound 523]”, “″++″ (≧20% = ++)”; that for “524 (ALIENLTHQI; listed as Homo sapiens) [compound 524]”, “″++″ (≧20% = ++)”.
The result for “525 (VLLEAGEGLVTI; listed as Homo sapiens) [compound 525]” reads “″+++″ (≧50% = +++)”; that for “526 (RLAEVGQYEQV; listed as Homo sapiens) [compound 526]”, “″++″ (≧20% = ++)”; that for “527 (FLLEPGNLEV; listed as Homo sapiens) [compound 527]”, “″++++″ (≧75% = ++++)”.
“528 (SVAEGRALMSV; listed as Homo sapiens) [compound 528]”: the Peptide exchange entry was “″+++″ (≧50% = +++)”.
The result for “529 (LLADELITV; listed as Homo sapiens) [compound 529]” reads “″+++″ (≧50% = +++)”; that for “530 (VMYADIGGMDI; listed as Homo sapiens) [compound 530]”, “″+++″ (≧50% = +++)”.
The result for “531 (YTLPIASSIRL; listed as Homo sapiens) [compound 531]” reads “″+++″ (≧50% = +++)”.
With “537 (TLAPGEVLRSV; listed as Homo sapiens) [compound 537]” the entry was “″+++″ (≧50% = +++)”; with “538 (LLLAHIIAL; listed as Homo sapiens) [compound 538]”, “″++″ (≧20% = ++)”.
On to “539 (ALFDAQAQV; listed as Homo sapiens) [compound 539]”, for which the Peptide exchange entry is “″+++″ (≧50% = +++)”.
Consider “541 (SMLEPVPEL; listed as Homo sapiens) [compound 541]”, for which the Peptide exchange result is “″+++″ (≧50% = +++)”.
The result for “542 (RVWDISTVSSV; listed as Homo sapiens) [compound 542]” reads “″+++″ (≧50% = +++)”; that for “543 (GLLPTPITQQASL; listed as Homo sapiens) [compound 543]”, “″+++″ (≧50% = +++)”; that for “544 (LLWDVPAPSL; listed as Homo sapiens) [compound 544]”, “″+++″ (≧50% = +++)”.
The result for “545 (LLADLLHNV; listed as Homo sapiens) [compound 545]” reads “″+++″ (≧50% = +++)”; that for “546 (VMIAGKVAVV; listed as Homo sapiens) [compound 546]”, “″+++″ (≧50% = +++)”.
The result for “547 (TLDITPHTV; listed as Homo sapiens) [compound 547]” reads “″+++″ (≧50% = +++)”; that for “548 (ALWENPESGEL; listed as Homo sapiens) [compound 548]”, “″++″ (≧20% = ++)”; that for “549 (AMLENASDIKL; listed as Homo sapiens) [compound 549]”, “″+++″ (≧50% = +++)”.
As to “550 (FLYDEIEAEVNL; listed as Homo sapiens) [compound 550]”, the Peptide exchange result is recorded as “″+++″ (≧50% = +++)”.
The result for “551 (KLYESLLPFA; listed as Homo sapiens) [compound 551]” reads “″+++″ (≧50% = +++)”.
The result for “552 (GLLDLPFRVGV; listed as Homo sapiens) [compound 552]” reads “″++++″ (≧75% = ++++)”.
In the case of “553 (SLLNQDLHWSL; listed as Homo sapiens) [compound 553]”, the Peptide exchange result is recorded as “″++++″ (≧75% = ++++)”.
With “554 (LLMPSSEDLLL; listed as Homo sapiens) [compound 554]” the entry was “″+++″ (≧50% = +++)”.
On to “555 (YVLEGLKSV; listed as Homo sapiens) [compound 555]”, for which the Peptide exchange entry was “″+++″ (≧50% = +++)”.
The result for “556 (FLTDLEDLTL; listed as Homo sapiens) [compound 556]” reads “″+++″ (≧50% = +++)”; that for “557 (KLYDDMIRL; listed as Homo sapiens) [compound 557]”, “″+++″ (≧50% = +++)”; that for “558 (GLLENIPRV; listed as Homo sapiens) [compound 558]”, “″+++″ (≧50% = +++)”.
The result for “559 (VTVPPGPSL; listed as Homo sapiens) [compound 559]” reads “″++″ (≧20% = ++)”; that for “560 (ALWDIETGQQTTT; listed as Homo sapiens) [compound 560]”, “″+++″ (≧50% = +++)”; that for “561 (YLQLTQSEL; listed as Homo sapiens) [compound 561]”, “″+++″ (≧50% = +++)”.
Consider “562 (YLEELPEKLKL; listed as Homo sapiens) [compound 562]”, for which the Peptide exchange result is reported as “″+++″ (≧50% = +++)”.
With “563 (WLLPYNGVTV; listed as Homo sapiens) [compound 563]”, the Peptide exchange entry is listed as “″+++″ (≧50% = +++)”.
The result for “564 (TVTNAVVTV; listed as Homo sapiens) [compound 564]” reads “″+++″ (≧50% = +++)”; that for “565 (ALQETPTSV; listed as Homo sapiens) [compound 565]”, “″++″ (≧20% = ++)”; that for “566 (VIADGGIQNV; listed as Homo sapiens) [compound 566]”, “″++″ (≧20% = ++)”.
The result for “567 (SLLPLDDIVRV; listed as Homo sapiens) [compound 567]” reads “″+++″ (≧50% = +++)”; that for “568 (TLYDIAHTPGV; listed as Homo sapiens) [compound 568]”, “″++++″ (≧75% = ++++)”.
With “569 (KLVDRTWTL; listed as Homo sapiens) [compound 569]”, the Peptide exchange result is listed as “″+++″ (≧50% = +++)”.
With “570 (ALANQIPTV; listed as Homo sapiens) [compound 570]” the entry was “″++″ (≧20% = ++)”; with “571 (LLLTTIPQI; listed as Homo sapiens) [compound 571]”, “″+++″ (≧50% = +++)”.
The result for “572 (ALADLIEKELSV; listed as Homo sapiens) [compound 572]” reads “″+++″ (≧50% = +++)”; that for “573 (ILVANAIVGV; listed as Homo sapiens) [compound 573]”, “″+++″ (≧50% = +++)”.
The result for “574 (YLLQEPPRTV; listed as Homo sapiens) [compound 574]” reads “″++″ (≧20% = ++)”; that for “575 (YLISQVEGHQV; listed as Homo sapiens) [compound 575]”, “″+++″ (≧50% = +++)”; that for “576 (ILLNNSGQIKL; listed as Homo sapiens) [compound 576]”, “″++++″ (≧75% = ++++)”.
Turning to “577 (VMFEDGVLMRL; listed as Homo sapiens) [compound 577]”, the Peptide exchange entry is on record as “″+++″ (≧50% = +++)”.
With “578 (FLDPGGPMMKL; listed as Homo sapiens) [compound 578]” the entry was “″+++″ (≧50% = +++)”; with “579 (NLMEMVAQL; listed as Homo sapiens) [compound 579]”, “″++″ (≧20% = ++)”.
